For the assay, the target named is T1, human transferrin receptor-Fc tag standard (human, UniProt P02786 89-760, limits assumed).
T1 construct: Coated on the ELISA plate at 2 µg/ml; also called hTfR; not shown: Fc tag
As to the kind of experiment: ELISA, hTfR-Fc coated on plate; calculated from an expected saturation point, curve not saturated at 10000 nM.

T1 sequence (P02786 89-760 limits assumed): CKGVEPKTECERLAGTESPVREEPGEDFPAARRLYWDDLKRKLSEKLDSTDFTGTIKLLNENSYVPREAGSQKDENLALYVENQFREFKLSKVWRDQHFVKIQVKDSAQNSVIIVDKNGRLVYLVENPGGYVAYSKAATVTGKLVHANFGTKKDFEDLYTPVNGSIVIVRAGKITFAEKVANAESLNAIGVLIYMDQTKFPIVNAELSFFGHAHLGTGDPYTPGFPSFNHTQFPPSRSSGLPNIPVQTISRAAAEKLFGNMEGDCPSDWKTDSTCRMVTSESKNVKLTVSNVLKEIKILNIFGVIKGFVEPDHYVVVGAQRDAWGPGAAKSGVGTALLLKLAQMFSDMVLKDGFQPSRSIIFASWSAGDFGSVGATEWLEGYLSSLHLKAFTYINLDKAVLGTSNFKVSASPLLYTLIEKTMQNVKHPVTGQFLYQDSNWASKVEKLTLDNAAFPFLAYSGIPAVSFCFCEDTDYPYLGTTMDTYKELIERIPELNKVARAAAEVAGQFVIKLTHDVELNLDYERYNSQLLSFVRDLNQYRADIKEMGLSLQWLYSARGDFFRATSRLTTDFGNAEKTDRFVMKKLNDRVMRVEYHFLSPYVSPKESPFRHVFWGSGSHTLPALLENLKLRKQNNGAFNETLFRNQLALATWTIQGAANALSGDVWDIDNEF

B1: huHF_Mutant2-dual (other)
chain: MTTASTSQVRQNYHAASEAAINAQINLELYASYVYLSMSYYFDRDDVALKNFAKYFLHQSHEEREHAEKLMKLQNQRGGRIALADIQKPDCDDGGSYGSLYAFDIWESGLNAMECALHLEKNVNQSLLALHALATAKNDPHLCDFIETHYLNEQVKAIKELGDHVTNLRKMGAPESGLAEYLFDKHTLGDSDNESMPSFITLASLSTWEGYFDF
notes: Ferritin particle of 24 monomers
With B1, the Kd – broadly, the equilibrium constant for the complex coming apart – is ~4.4 µM.

(Values after EP4335450A1 (Cellemedy Co., Ltd, dated 2024).)
